B1: TNC III1-5: recombinant tenascin C fibronectin type III repeats 1-5 (E622 to A1074) with transglutaminase substrate NQEQVSPL and 6×His tag, SEQ ID NO:1 (protein)
chain: METDTLLLWVLLLWVPGSTGDAAQPAIEGRNQEQVSPLGGSEVSPPKDLVVTEVTEETVNLAWDNEMRVTEYLVVYTPTHEGGLEMQFRVPGDQTSTIIQELEPGVEYFIRVFAILENKKSIPVSARVATYLPAPEGLKFKSIKETSVEVEWDPLDIAFETWEIIFRNMNKEDEGEITKSLRRPETSYRQTGLAPGQEYEISLHIVKNNTRGPGLKRVTTTRLDAPSQIEVKDVTDTTALITWFKPLAEIDGIELTYGIKDVPGDRTTIDLTEDENQYSIGNLKPDTEYEVSLISRRGDMSSNPAKETFTTGLDAPRNLRRVSQTDNSITLEWRNGKAAIDSYRIKYAPISGGDHAEVDVPKSQQATTKTTLTGLRPGTEYGIGVSAVKEDKESNPATINAATELDTPKDLQVSETAETSLTLLWKTPLAKFDRYRLNYSLPTGQWVGVQLPRNTTSYVLRGLEPGQEYNVLLTAEKGRHKSKPARVKASTEQAGGGSHHHHHH
modifications: Tenascin III signal sequence with polyhistidine tag
B2: Fg β15-66: heparin-binding domain of human fibrinogen β chain aa15-66 (SEQ ID NO:8); construct with TG substrate and His tag, SEQ ID NO:2 (protein)
chain: GSNQEQVSPLGHRPLDKKREEAPSLRPAPPPISGGGYRARPAKAAATQKKVERKAPDAGGCGHHHHHH
modifications: GS linker, transglutaminase substrate, the Fg beta15-66, with a Histidine tag

Experiments:
FGF-18 = molecular target: T1, FGF-18 (Homo sapiens, UniProt O76093); test: ELISA binding to coated FGF-18; details: 50 nM cytokine coated
T1 sequence (O76093 28-207): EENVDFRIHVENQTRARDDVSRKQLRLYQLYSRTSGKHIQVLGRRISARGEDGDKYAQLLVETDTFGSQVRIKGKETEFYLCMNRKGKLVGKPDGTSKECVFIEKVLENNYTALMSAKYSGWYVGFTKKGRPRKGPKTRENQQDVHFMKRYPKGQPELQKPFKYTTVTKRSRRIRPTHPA
Experimental: (§1) ELISA plates were coated with cytokines or BSA and further incubated with TNC III1-5 to analyze binding of TNC III1-5 to a wide variety of cytokines. […] Results are depicted in FIG. 3. Method: 50 nM of cytokine was coated for (1 hr, 37° C.). After blocking with 2% BSA (1 hr, RT). 100 nM TNC III1-5 was applied in PBST (0.05% tween, 0.1% bovine serum albumin (BSA)) (1 hr, RT). TNC III1-5 was detected with horseradish peroxidase (HRP)-anti-HIS in PBST (1 hr, RT) and developed with 3,3′,5,5′-tetramethylbenzidine (TMB), a soluble colorimetric HRP […]. Addition of sulfuric acid stop solution changes the color to yellow, enabling accurate measurement of the intensity at 450 nm using a spectrophotometer or plate reader. […] Heparin (4 μM) was added to TNC III1-5 to test the effect of blocking the heparin binding site of TNC III1-5, which has been defined as domain TNC III5 (Weber, Zimmermann, et al., 1995).

PDGF-AA = PDGF-AA (Homo sapiens, UniProt P04085); test: ELISA binding to coated PDGF-AA; details: 50 nM cytokine coated
Experimental: as §1

PDGF-DD = PDGF-DD (Homo sapiens, UniProt Q9GZP0); test: ELISA binding to coated PDGF-DD; details: 50 nM cytokine coated
Experimental: as §1

SMC = test: Smooth muscle cell proliferation on modified TG-PEG gels with PDGF-BB; assay type: cell-based
Experimental: Method: Three different gels were fabricated, unmodified PEG, and PEG gels modified with TNC III1-5 or FN III9*-10,TNC III1-5 (5 μM). Unbound fragment was washed from the gels. Sequentially, gels were incubated for 1 hour at 37° C. with 100 μL DMEM without PDGF-BB or with PDGF-BB (1 ng per gel). For one set of gels, the media containing PDGF-BB was removed and gels were washed for 1 hour at RT. Cells were added to each gel and a proliferation assay with Alamar Blue was performed at 72 hours.

FGF-5 = molecular target: T2, FGF-5 (Homo sapiens, UniProt P12034); test: ELISA binding to coated FGF-5; details: 50 nM cytokine coated
T2 sequence (P12034 21-268): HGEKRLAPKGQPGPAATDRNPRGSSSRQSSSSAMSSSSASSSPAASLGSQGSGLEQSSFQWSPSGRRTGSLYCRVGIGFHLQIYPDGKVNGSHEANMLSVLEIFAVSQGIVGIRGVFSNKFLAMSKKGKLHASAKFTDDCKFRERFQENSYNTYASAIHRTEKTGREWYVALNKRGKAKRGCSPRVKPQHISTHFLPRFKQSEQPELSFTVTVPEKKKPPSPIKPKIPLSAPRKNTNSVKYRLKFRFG
Experimental: as §1
(§2) ELISA plates were coated with cytokines or BSA and further incubated with Fg β15-66 to analyze binding of […] to a wide variety of cytokines. […] Results are depicted in FIG. 4. Method: The methods were analogous to those used in Example 3.

PlGF-3 = molecular target: T3, PlGF-3 (Homo sapiens, UniProt P49763); test: ELISA binding to coated PlGF-3; details: 50 nM cytokine coated
T3 sequence (P49763 19-221): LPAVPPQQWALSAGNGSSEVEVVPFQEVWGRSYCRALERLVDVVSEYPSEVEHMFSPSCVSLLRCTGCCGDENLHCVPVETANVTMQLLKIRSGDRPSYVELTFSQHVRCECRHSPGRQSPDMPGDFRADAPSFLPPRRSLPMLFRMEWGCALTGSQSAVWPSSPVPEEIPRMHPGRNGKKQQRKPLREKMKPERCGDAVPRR
Experimental: as §1, §2

skin wounds = test: Full-thickness back-skin wound healing in diabetic mice; assay type: in vivo; details: TG-PEG gels functionalized with TG-Fg β15-66 delivering FGF-2 and PlGF-2; 10 days
Experimental: Method: Full-thickness back-skin wounds were treated with combined FGF-2 and PlGF-2. Seven groups were tested: treatment (no ECM); fibrin only; fibrin containing cytokines; PEG only, PEG containing cytokines; PEG functionalized with TG-Fg β15-66, and PEG functionalized with TG-Fg β15-66 containing cytokines. After 10 days, wound closure and granulation tissue area were evaluated by histology. FIG. 20 details the results.

Chain of PDGF-DD (Q9GZP0 250-370 limits assumed): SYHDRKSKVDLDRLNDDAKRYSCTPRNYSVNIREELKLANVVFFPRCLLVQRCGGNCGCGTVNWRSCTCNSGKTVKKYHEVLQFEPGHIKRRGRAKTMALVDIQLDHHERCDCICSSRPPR

Row | Molecule | binding to FGF-18 (ELISA, signal above BSA background) (FGF-18) | binding to PDGF-AA (ELISA, signal above BSA background) (PDGF-AA) | binding to PDGF-DD (ELISA, signal above BSA background) (PDGF-DD) | SMC proliferation on TG-PEG gels (2%) (SMC; in the presence of PDGF-BB, 5 μM fragment, 72 hours) | SMC proliferation on modified gels vs unmodified gels (SMC; unbound PDGF-BB removed, p<0.05) | binding to FGF-5 (ELISA, signal above BSA background) (FGF-5) | binding to PlGF-3 (ELISA, signal above BSA background) (PlGF-3) | skin-wound healing (skin wounds)
1 | B1 | positive binding | positive binding | positive binding | enhanced SMC proliferation | significantly increased proliferation | – | – | –
2 | B2 | – | – | – | – | – | positive binding | positive binding | enhanced skin-wound healing
